T1: human IL-10 receptor (hIL-10R alpha and beta chains) on HEK-Blue IL-10 reporter cells (human, UniProt Q13651 22-578; Q08334 20-325)
T1 sequence 1: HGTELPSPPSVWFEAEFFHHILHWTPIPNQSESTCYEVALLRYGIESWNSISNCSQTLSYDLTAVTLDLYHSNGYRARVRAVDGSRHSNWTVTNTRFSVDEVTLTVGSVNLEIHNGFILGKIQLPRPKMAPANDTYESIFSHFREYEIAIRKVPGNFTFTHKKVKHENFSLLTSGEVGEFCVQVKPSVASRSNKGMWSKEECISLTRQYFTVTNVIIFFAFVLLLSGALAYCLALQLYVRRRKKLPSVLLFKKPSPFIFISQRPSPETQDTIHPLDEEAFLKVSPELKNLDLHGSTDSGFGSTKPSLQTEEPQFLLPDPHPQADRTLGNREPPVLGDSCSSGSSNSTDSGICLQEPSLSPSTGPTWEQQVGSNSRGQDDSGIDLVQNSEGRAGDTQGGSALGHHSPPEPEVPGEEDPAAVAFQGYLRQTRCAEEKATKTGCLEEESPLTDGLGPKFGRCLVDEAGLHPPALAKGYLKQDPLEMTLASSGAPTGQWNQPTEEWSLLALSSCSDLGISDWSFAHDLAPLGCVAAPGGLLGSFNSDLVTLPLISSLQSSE
T1 sequence 2: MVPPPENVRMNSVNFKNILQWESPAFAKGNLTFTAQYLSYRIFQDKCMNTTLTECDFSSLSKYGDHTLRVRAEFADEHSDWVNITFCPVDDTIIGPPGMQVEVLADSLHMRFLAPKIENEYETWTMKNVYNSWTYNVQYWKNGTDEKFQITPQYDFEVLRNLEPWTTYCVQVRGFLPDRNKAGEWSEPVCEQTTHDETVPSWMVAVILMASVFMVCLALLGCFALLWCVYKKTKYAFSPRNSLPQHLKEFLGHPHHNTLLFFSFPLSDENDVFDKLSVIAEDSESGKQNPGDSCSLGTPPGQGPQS


Biological target: T1, human IL-10 receptor (hIL-10R alpha and …)
Test: cell-based or functional assay

Abs 630 (25 nM) | Abs 630 (100 nM) | Binder
0.43 Abs 630 | 0.35 Abs 630 | IL10R binding molecule of SEQ ID NO: 346 (bispecific antibody) QVQLQESGGGSVQAGGSLRLSCAASGYSYSSYCMGWFRQAPGKEREGVATIDSDGMTRYADSVKGRFTISKDNAKNTLYLQMNSLKPEDTAMYYCAAPLYDCDSGAVGRNPPYWGQGTQVTVSSGGGSQVQLQESGGGSVQAGGSLRLSCAASGYSNCSYDMTWYRQAPGKEREFVSAIHSDGSTRYADSVKGRFFISQDNAKNTVYLQMNSLKPEDTAMYYCKTDPLHCRAHGGSWYSVRANYWGQGTQVTVSSASHHHHHH
0.52 Abs 630 | 0.44 Abs 630 | IL10R binding molecule of SEQ ID NO: 345 (bispecific antibody) QVQLQESGGGSVQAGGSLRLSCAASGYSYSSYCMGWFRQAPGKEREGVATIDSDGMTRYADSVKGRFTISKDNAKNTLYLQMNSLKPEDTAMYYCAAPLYDCDSGAVGRNPPYWGQGTQVTVSSGGGSQVQLQESGGGSVQAGGSLRLSCGASGYTYSSYCMGWFRQVPGKEREGVAVIDSDGSTSYADSVKGRFTISKDNGKNTLYLQMNSLKPEDTAMYYCAADLGHYRPPCGVLYLGMDYWGKGTQVTVSSASHHHHHH
0.46 Abs 630 | 0.38 Abs 630 | IL10R binding molecule of SEQ ID NO: 349 (bispecific antibody) QVQLQESGGGSVQTGGSLRLSCAASGYTYLRGCMGWFRQAPGKEREGVAVMDVVGDRRSYIDSVKGRFTISRDNAANSVYLQMDNLKPEDTAMYYCTAGPNCVGWRSGLDYWGQGTQVTVSSGGGSQVQLQESGGGSVQAGGSLRLSCAASGYTYSMYCMGWFRQAPGKEREGVAQINSDGSTSYADSVKGRFTISKDNAKNTLYLQMNSLKPEDTAMYYCAADSRVYGGSWYERLCGPYTYEYNYWGQGTQVTVSSASHHHHHH
0.46 Abs 630 | 0.36 Abs 630 | IL10R binding molecule of SEQ ID NO: 348 (bispecific antibody) QVQLQESGGGSVQTGGSLRLSCAASGYTYLRGCMGWFRQAPGKEREGVAVMDVVGDRRSYIDSVKGRFTISRDNAANSVYLQMDNLKPEDTAMYYCTAGPNCVGWRSGLDYWGQGTQVTVSSGGGSQVQLQESGGGSVQAGGSLRLSCAASRFTYSSYCMGWFRQAPGKEREGVASIDSDGSTSYTDSVKGRFTISKDNAKNTLYLQMNSLKPEDTAMYYCALDLMSTVVPGFCGFLLSAGMDYWGKGTQVTVSSASHHHHHH
0.46 Abs 630 | 0.37 Abs 630 | IL10R binding molecule of SEQ ID NO: 343 (bispecific antibody) QVQLQESGGGSVQAGGSLRLSCAASGYSYSSYCMGWFRQAPGKEREGVATIDSDGMTRYADSVKGRFTISKDNAKNTLYLQMNSLKPEDTAMYYCAAPLYDCDSGAVGRNPPYWGQGTQVTVSSGGGSQVQLQESGGGSVQAGGSLRLSCAVSGYAYSTYCMGWFRQAPGKEREGVAAIDSGGSTSYADSVKGRFTISKDNAKNTLYLRMNSLKPEDTAMYYCAAVPPPPDGGSCLFLGPEIKVSKADFRYWGQGTQVTVSSASHHHHHH
0.54 Abs 630 | 0.46 Abs 630 | IL10R binding molecule of SEQ ID NO: 265 (bispecific antibody) QVQLQESGGGSVQAGGSLRLSCAASRFTYSSYCMGWFRQAPGKEREGVASIDSDGSTSYTDSVKGRFTISKDNAKNTLYLQMNSLKPEDTAMYYCALDLMSTVVPGFCGFLLSAGMDYWGKGTQVTVSSGGGSQVQLQESGGGSVQAGGSLRLSCAASRYTYNSYCMGWFRQAPGKEREGVATIDSDGMTRYADSVKGRFTISKDNAKNTLYLQMNSLKPEDTAMYYCAADADCTIAAMTTNPLGQGTQVTVSSASHHHHHH
0.49 Abs 630 | 0.39 Abs 630 | IL10R binding molecule of SEQ ID NO: 266 (bispecific antibody) QVQLQESGGGSVQAGGSLRLSCAASRFTYSSYCMGWFRQAPGKEREGVASIDSDGSTSYTDSVKGRFTISKDNAKNTLYLQMNSLKPEDTAMYYCALDLMSTVVPGFCGFLLSAGMDYWGKGTQVTVSSGGGSQVQLQESGGGSVQAGGSLRLSCTVSRYTASVNYMGWFRQAPGKEREGVATIFTGAGTTYYANSVKGRFTISRDNAKNTAYLQMNSLKPEDTAIYYCAVDFRGGLLYRPAYEYTYRGQGTQVTVSSASHHHHHH
0.56 Abs 630 | 0.61 Abs 630 | IL10R binding molecule of SEQ ID NO: 353 (bispecific antibody) QVQLQESGGGSVQTGGSLRLSCAASGYTYLRGCMGWFRQAPGKEREGVAVMDVVGDRRSYIDSVKGRFTISRDNAANSVYLQMDNLKPEDTAMYYCTAGPNCVGWRSGLDYWGQGTQVTVSSGGGSQVQLQESGGGSVQAGGSLRLSCAASGYSNCSYDMTWYRQAPGKEREFVSAIHSDGSTRYADSVKGRFFISQDNAKNTVYLQMNSLKPEDTAMYYCKTDPLHCRAHGGSWYSVRANYWGQGTQVTVSSASHHHHHH
0.43 Abs 630 | 0.34 Abs 630 | IL10R binding molecule of SEQ ID NO: 351 (bispecific antibody) QVQLQESGGGSVQTGGSLRLSCAASGYTYLRGCMGWFRQAPGKEREGVAVMDVVGDRRSYIDSVKGRFTISRDNAANSVYLQMDNLKPEDTAMYYCTAGPNCVGWRSGLDYWGQGTQVTVSSGGGSQVQLQESGGGSVQAGGSLRLSCTVSGYTYSSNCMGWFRQAPGKEREGVATIYTGGGNTYYADSVKGRFTISQDNAKNTVYLQMNNLKPEDTAMYYCAAEPLSRVYGGSCPTPTFDYWGQGTQVTVSSASHHHHHH
1.52 Abs 630 | 0.67 Abs 630 | IL10R binding molecule of SEQ ID NO: 264 (bispecific antibody) QVQLQESGGGSVQAGGSLRLSCAASRFTYSSYCMGWFRQAPGKEREGVASIDSDGSTSYTDSVKGRFTISKDNAKNTLYLQMNSLKPEDTAMYYCALDLMSTVVPGFCGFLLSAGMDYWGKGTQVTVSSGGGSQVQLQESGGGSVQAGGSLRLSCAASGYTYSSYCMGWFRQAPGKEREGVAHIDSDGSTSYADSVKGRFTISKDNAKNTLYLQMNSLKPEDTAMYYCAADPIPGPGYCDGGPNKYWGQGTQVTVSSASHHHHHH
0.75 Abs 630 | 0.53 Abs 630 | IL10R binding molecule of SEQ ID NO: 267 (bispecific antibody) QVQLQESGGGSVQAGGSLRLSCAASRFTYSSYCMGWFRQAPGKEREGVASIDSDGSTSYTDSVKGRFTISKDNAKNTLYLQMNSLKPEDTAMYYCALDLMSTVVPGFCGFLLSAGMDYWGKGTQVTVSSGGGSQVQLQESGGGSVEAGGSLRLSCAASGYTHSSYCMGWFRQAPGKEREGVAAIDVDGSTTYADSVKGRFTISKDNAKNTLYLQMNSLKPEDTGMYYCAAEFADCSSNYFLPPGAVRYWGQGTQVTVSSASHHHHHH
0.43 Abs 630 | 0.35 Abs 630 | IL10R binding molecule of SEQ ID NO: 350 (bispecific antibody) QVQLQESGGGSVQTGGSLRLSCAASGYTYLRGCMGWFRQAPGKEREGVAVMDVVGDRRSYIDSVKGRFTISRDNAANSVYLQMDNLKPEDTAMYYCTAGPNCVGWRSGLDYWGQGTQVTVSSGGGSQVQLQESGGGSVQAGGSLRLSCAVSGYAYSTYCMGWFRQAPGKEREGVAAIDSGGSTSYADSVKGRFTISKDNAKNTLYLRMNSLKPEDTAMYYCAAVPPPPDGGSCLFLGPEIKVSKADFRYWGQGTQVTVSSASHHHHHH
0.5 Abs 630 | 0.43 Abs 630 | IL10R binding molecule of SEQ ID NO: 344 (bispecific antibody) QVQLQESGGGSVQAGGSLRLSCAASGYSYSSYCMGWFRQAPGKEREGVATIDSDGMTRYADSVKGRFTISKDNAKNTLYLQMNSLKPEDTAMYYCAAPLYDCDSGAVGRNPPYWGQGTQVTVSSGGGSQVQLQESGGGSVQAGGSLRLSCTVSGYTYSSNCMGWFRQAPGKEREGVATIYTGGGNTYYADSVKGRFTISQDNAKNTVYLQMNNLKPEDTAMYYCAAEPLSRVYGGSCPTPTFDYWGQGTQVTVSSASHHHHHH
0.53 Abs 630 | 0.41 Abs 630 | IL10R binding molecule of SEQ ID NO: 268 (bispecific antibody) QVQLQESGGGSVQAGGSLRLSCAASRFTYSSYCMGWFRQAPGKEREGVASIDSDGSTSYTDSVKGRFTISKDNAKNTLYLQMNSLKPEDTAMYYCALDLMSTVVPGFCGFLLSAGMDYWGKGTQVTVSSGGGSQVQLQESGGGSVQAGGSLRLSCAASGYSYSSYCMGWFRQAPGKEREGVATIDSDGMTRYADSVKGRFTISKDNAKNTLYLQMNSLKPEDTAMYYCAAPLYDCDSGAVGRNPPYWGQGTQVTVSSASHHHHHH
0.54 Abs 630 | 0.65 Abs 630 | IL10R binding molecule of SEQ ID NO: 352 (bispecific antibody) QVQLQESGGGSVQTGGSLRLSCAASGYTYLRGCMGWFRQAPGKEREGVAVMDVVGDRRSYIDSVKGRFTISRDNAANSVYLQMDNLKPEDTAMYYCTAGPNCVGWRSGLDYWGQGTQVTVSSGGGSQVQLQESGGGSVQAGGSLRLSCGASGYTYSSYCMGWFRQVPGKEREGVAVIDSDGSTSYADSVKGRFTISKDNGKNTLYLQMNSLKPEDTAMYYCAADLGHYRPPCGVLYLGMDYWGKGTQVTVSSASHHHHHH
0.45 Abs 630 | 0.35 Abs 630 | IL10R binding molecule of SEQ ID NO: 347 (bispecific antibody) QVQLQESGGGSVQTGGSLRLSCAASGYTYLRGCMGWFRQAPGKEREGVAVMDVVGDRRSYIDSVKGRFTISRDNAANSVYLQMDNLKPEDTAMYYCTAGPNCVGWRSGLDYWGQGTQVTVSSGGGSQVQLQESGGGSVQAGGSLRLSCAASRYLYSIDYMAWFRQSPGKEREPVAVIYTASGATFYPDSVKGRFTISQDNAKMTVYLQMNSLKSEDTAMYYCAAVRKTDSYLFDAQSFTYWGQGTQVTVSSASHHHHHH

— patent US20250163167A1 (SYNTHEKINE, published 2025)
